Among the data in US20110189164A1, “Peptide Stabilizer Compounds and Screening Method” (Isogenica Ltd, priority 2005, published 2011) are Thrombin resistant and Trypsin resistant values, retold here.

For one data set, the target named is Human Thrombin (Homo sapiens, UniProt P00734). The following applies: fifth round selected peptides; 1 hour incubation +/- Human Thrombin 0.1 unit/ml; anti-FLAG ELISA OD450. On the procedure: The values represent ((OD450 nm reading after incubation with thrombin)/(OD450 nm reading after incubation without thrombin)) expressed as a percentage. 100% indicates complete protection from thrombin cleavage.
Recovered DNA from the fifth round of selection was amplified using PCR, purified and digested with NotI and NcoI. The DNA was then ligated into a similarly digested M13 gpIII phagemid vector and transformed into E. coli XL-1 blue cells, and plated on 2% glucose, 2×TY, 100 μg/ml ampicillin plates. Individual colonies were grown for the production of phage particles as previously described (Odegrip et al Proc. Natl. Acad. Sci USA 101 2806-2810 (2004)). NUNC Maxisorp plates were coated with 100 ng/well of anti-FLAG M2 antibody in PBS overnight at 4° C. ELISA assays were performed with bound phage being incubated for 1 hour in 2% BSA in PBS, +/−Human Thrombin (0.1 unit/ml). The assay was developed with SureBlue TMB peroxidase substrate (Insight Biotechnology, Middlesex, UK) and read at 450 nm.
For orientation: In an ELISA, binding on a coated surface is turned into a signal by an enzyme label.

The next data set deals with T1, trypsin (Bos taurus, UniProt P00760).
T1 construct: purchased SIGMA-Aldrich or Novagen
T1 sequence (P00760 24-246): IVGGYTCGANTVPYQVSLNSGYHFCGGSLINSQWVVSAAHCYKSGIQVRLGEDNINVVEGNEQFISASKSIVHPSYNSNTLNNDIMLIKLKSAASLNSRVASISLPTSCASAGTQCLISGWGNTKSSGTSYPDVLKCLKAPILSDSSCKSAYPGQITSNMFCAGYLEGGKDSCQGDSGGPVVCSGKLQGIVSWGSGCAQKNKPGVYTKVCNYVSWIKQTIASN
The data set can be described thus: Incubation with trypsin-agarose, then ELISA against anti-FLAG antibody (trypsin resistance). It is filed as in vitro ADME. Conditions: two hours at 25° C. On the procedure: A. Unselected library peptides incubated with trypsin. B. Unselected library peptides incubated without trypsin. C. Round five thrombin selection peptides incubated with trypsin. D. Round five thrombin selection peptides incubated without trypsin.
Trypsin cleaves after R or after K, thus there are two trypsin sites fixed in the FLAG epitope and thrombin substrate sequence. Even partial resistance to trypsin is surprising as no selection for trypsin resistance was performed and the FLAG epitope is susceptible to trypsin cleavage. Such resistance is observed in round five peptides selected for thrombin resistance, but not in the un-selected library peptides (FIG. 3).

For the sequence ITPPDNSHTPDE [SEQID 027], the Thrombin resistant entry in the data set with Human Thrombin is recorded as “resistant”. Further, the Trypsin resistant result with trypsin was “resistant”.
Regarding HGHSPSDNANTR [SEQID 028], the Thrombin resistant entry with Human Thrombin is “resistant”. For the same sequence, the Trypsin resistant entry with trypsin was “resistant”.
As for PSCPNKQDPTHD [SEQID 030], the Thrombin resistant entry with Human Thrombin is recorded as “resistant”. In addition, the Trypsin resistant result with trypsin is recorded as “resistant”.
On to HCVHEPQTKHES [SEQID 029], for which, in the data set with Human Thrombin, the Thrombin resistant result is recorded as “resistant”. For the same sequence, the Trypsin resistant result with trypsin is “resistant”.
